Reference: publication PMC9680708

What was measured:
Assay in all cases: other fluorescence titration
[1] = biological target: FlAsH-labeled wild-type collybistin (CB) FRET sensor F1DA (rat)
[2] = biological target: FlAsH-labeled collybistin FRET sensor F73DA (rat)
[3] = biological target: FlAsH-labeled double-mutant (W24A/E262A) open-state collybistin FRET sensor F1dmDA (rat)
[4] = biological target: FlAsH-labeled collybistin FRET sensor F28DA (rat)
[5] = biological target: FlAsH-labeled collybistin FRET sensor F99DA (rat)
[6] = biological target: FlAsH-labeled single-mutant (E262A) open-state collybistin FRET sensor F1smDA (rat)

Row | Kd [1] | species-weighted average fluorescence lifetime of CFP in the sensor with ligand [1] | species-weighted average fluorescence lifetime of CFP in the sensor with ligand [2] | Kd [3] | species-weighted average fluorescence lifetime of CFP in the sensor with ligand [3] | species-weighted average fluorescence lifetime of CFP in the sensor with ligand [4] | species-weighted average fluorescence lifetime of CFP in the sensor with ligand [5] | Kd [6] | species-weighted average fluorescence lifetime of CFP in the sensor with ligand [6] | Substance
1 | 373 µM | 1.44 ns | – | – | – | – | – | – | – | free SH3 domain of collybistin (domain or fragment)
2 | – | 1.37 ns | – | – | – | – | – | – | – | intracellular cytosolic domain of neuroligin 2 (NL2icd) (from UniProt Q62888 700-836) (domain or fragment)
3 | 4.5 µM | 1.56 ns | 1.03 ns | 43 µM | 0.64 ns | 1.4 ns | 1.2 ns | 47 µM | 0.62 ns | full-length gephyrin (GephFL) (from UniProt Q03555 1-768) (natural protein)
4 | 6.3 µM | 1.36 ns | – | – | – | – | – | – | – | isolated gephyrin E domain (GephE) (domain or fragment)
5 | 6.4 µM | 1.54 ns | – | – | – | – | – | – | – | gephyrin linker followed by the E domain (GephLE) (domain or fragment)
